Source: patent US20190218304A1, “POTENTIATING THE EFFECT OF ATP RELEASE” (INNATE PHARMA, priority 2017, published 2019)
Entries after “also recorded” stand apart in the source; their conditions may differ.

Experiments:
[1] = target: T1, Human CD39-L4, also known as NTPDase5 or ENTPD5 (Homo sapiens, UniProt O75356); test: ELISA titration on CD39-L4; format: binding; settings: coated recombinant protein, OD=450
T1 sequence (O75356 25-428): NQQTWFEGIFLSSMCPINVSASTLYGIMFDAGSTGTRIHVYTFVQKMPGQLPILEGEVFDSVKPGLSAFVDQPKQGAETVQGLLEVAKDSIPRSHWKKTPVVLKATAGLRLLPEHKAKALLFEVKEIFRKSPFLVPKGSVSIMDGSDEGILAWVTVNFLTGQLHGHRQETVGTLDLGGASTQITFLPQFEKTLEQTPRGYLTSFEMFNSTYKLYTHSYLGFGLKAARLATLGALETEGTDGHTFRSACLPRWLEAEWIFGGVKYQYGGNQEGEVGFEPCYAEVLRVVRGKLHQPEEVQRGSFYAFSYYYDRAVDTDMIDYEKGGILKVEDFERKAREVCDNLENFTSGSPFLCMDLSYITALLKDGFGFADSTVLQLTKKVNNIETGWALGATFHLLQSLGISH
Procedure: Wells were washed in TBS Tween 20, and further saturated 2H at RT in TBS Blocking buffer. Dose range concentration of primary antibody was incubated in TBS blocking buffer for 2 h at RT. Wells were washed in TBS Tween 20. […] Optical density was measured on Enspire™ at OD=450.

cell-membrane bound CD39 = target: T2, cell-membrane bound CD39 (Homo sapiens, UniProt P49961); test: Inhibition of the enzymatic activity of cellular CD39 (cells not specified); format: cell-based
T2 sequence (P49961 1-510): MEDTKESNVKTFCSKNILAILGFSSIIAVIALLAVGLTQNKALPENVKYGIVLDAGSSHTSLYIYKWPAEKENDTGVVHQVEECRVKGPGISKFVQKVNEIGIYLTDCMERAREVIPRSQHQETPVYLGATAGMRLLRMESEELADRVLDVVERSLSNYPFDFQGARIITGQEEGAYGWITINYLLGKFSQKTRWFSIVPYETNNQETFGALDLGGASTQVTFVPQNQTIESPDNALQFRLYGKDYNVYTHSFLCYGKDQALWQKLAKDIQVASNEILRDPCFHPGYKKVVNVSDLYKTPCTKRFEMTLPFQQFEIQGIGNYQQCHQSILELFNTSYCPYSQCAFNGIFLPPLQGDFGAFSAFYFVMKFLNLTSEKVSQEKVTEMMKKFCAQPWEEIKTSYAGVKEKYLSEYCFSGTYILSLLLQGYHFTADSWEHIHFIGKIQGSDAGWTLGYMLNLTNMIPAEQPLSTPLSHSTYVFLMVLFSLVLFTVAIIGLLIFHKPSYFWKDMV
Procedure: The inhibition of the CD39 enzymatic activity in CD39-expressing cells by antibodies was evaluated using Cell Titer Glo™ (Promega, reference G7571) that allows assessment of ATP hydrolysis through use of a reagent that generates a luminescent signal proportional to the amount of ATP present. The assay was thus designed to permit assessment of the inhibition of ATP hydrolyzed by CD39 in the cell culture supernatant. Briefly, 5×10^4 Ramos human lymphoma cells, 5×10^3 human CD39-, cynomolgus CD39- and mouse CD39-expressing CHO cells, were incubated 1 hour at 37° C. with anti-CD39 antibodies from 30 μg/ml to 5×10^−4 μg/ml. Cells were then incubated with 20 μM ATP for 1 additional hour at 37° C. Plates were centrifuged for 2 min at 400 g and 50 μl cell supernatant are transferred in a luminescence microplate (white wells). 50 μl CellTiter-Glo® Reagent (CTG) was added to the supernatant and emitted light was quantified after a 5 min incubation in the dark using a Enspire™ luminometer. Anti-CD39 antibody efficacy was determined by comparing emitted light in presence of antibody with ATP alone (maximal light emission) and ATP together with cells (minimal light emission). […]

[2] = target: T3, human Ramos lymphoma cells (Homo sapiens, UniProt P49961); test: Antibody titration by flow cytometry on Ramos cells; format: binding
T3 construct: host or cells: Ramos human lymphoma cells
T3 sequence (P49961 1-510): T2 sequence (P49961 1-510)
Procedure: Cells were incubated with various concentration of unlabeled anti-CD39 antibody from 30 μg/ml to 5×10^−4 μg/ml, for 30 minutes at 4° C. After washes, cells were incubated with Goat anti-mouse H+L labeled secondary antibody for 30 min at 4° C.

allogenic CD4 T cells = test: Mixed lymphocytes reaction (MLR) of ATP-activated DC with allogenic CD4 T cells; format: cell-based, human; settings: ATP-activated MoDC, 1 MoDC/4 T cells, 5 days
Procedure: T cells activation and proliferation were analyzed through CD25 expression and Cell Trace Violet dilution by flow cytometry.
Briefly, human monocytes were purified from human healthy blood and differentiated into MoDC in presence of GM-CSF and IL-4 during 6 days. Then MoDC were activated in presence of ATP (Sigma, 0.25-1 mM) during 24 hours and DC activation were assessed by analyzing CD80, CD83 and HLA-DR expression by flow cytometry. […] LPS (Invivogen, 10 ng/ml) was used as positive control. To assess resulting effect of ATP-mediated DC activation on CD4 T cells activation, ATP-activated DC were washed and then incubated with allogenic CD4 T cells (ratio 1 MoDC/4 T cells) for a mixed lymphocytes reaction (MLR) during 5 days. T cells activation and proliferation were analyzed through CD25 expression and Cell Trace Violet dilution by flow cytometry (FIG. 8).

[3] = target: T4, human CD39-expressing CHO cells (Homo sapiens, UniProt P49961); test: Inhibition of the enzymatic activity of cellular CD39, CHO-huCD39 cells; format: cell-based; settings: result in words
T4 construct: expressed in transfected cells; host or cells: CHO cells
T4 sequence (P49961 1-510): T2 sequence (P49961 1-510)
Procedure: (§1) The inhibition of the CD39 enzymatic activity in CD39-expressing cells by antibodies was evaluated using Cell Titer Glo™ (Promega, reference G7571) that allows assessment of ATP hydrolysis through use of a reagent that generates a luminescent signal proportional to the amount of ATP present. The assay was thus designed to permit assessment of the inhibition of ATP hydrolyzed by CD39 in the cell culture supernatant. Briefly, 5×10^4 Ramos human lymphoma cells, 5×10^3 human CD39-, cynomolgus CD39- and mouse CD39-expressing CHO cells, were incubated 1 hour at 37° C. with anti-CD39 antibodies from 30 μg/ml to 5×10^−4 μg/ml. Cells were then incubated with 20 μM ATP for 1 additional hour at 37° C. Plates were centrifuged for 2 min at 400 g and 50 μl cell supernatant are transferred in a luminescence microplate (white wells). 50 μl CellTiter-Glo® Reagent (CTG) was added to the supernatant and emitted light was quantified after a 5 min incubation in the dark using a Enspire™ luminometer. Anti-CD39 antibody efficacy was determined by comparing emitted light in presence of antibody with ATP alone (maximal light emission) and ATP together with cells (minimal light emission).

[4] = target: T5, CD39 expressed by Ramos human lymphoma cells (Homo sapiens, UniProt P49961); test: Inhibition of the enzymatic activity of cellular CD39, Ramos cells (Cell Titer Glo); format: cell-based
T5 construct: host or cells: Ramos human lymphoma cells
T5 sequence (P49961 1-510): T2 sequence (P49961 1-510)
Procedure: as §1

[5] = test system: MCA205 mouse tumor cells (sarcoma); test: In vivo combination treatment, MCA205 tumors in human CD39 KI mice; settings: second experimental series: oxaliplatin injected twice, one week apart, one day after I-394
Procedure: 1×10^6 MCA205 mouse tumor cells (sarcoma) were subcutaneously engrafted in the right flank of mice genetically modified to express human CD39 (CD39KI mice). […] Tumors were measured twice a week with a caliper (L: length and w: width) and tumor volume was calculated with the formula (L×w2)/2. Mice were sacrificed when tumor volume was above 1800 mm^3 or when tumors were highly necrosed. The human CD39 KI mice were engrafted with MCA205 tumor cells at day 0.
In a first experimental series, mice were treated at day 5 post tumor cell engraftment with either control (1 group) PBS, or oxaliplatin chemotherapy (2 groups). In parallel, one group of mice treated with oxaliplatin was injected twice a week with anti-CD39 antibody, with the anti-CD39 antibody treatment starting just one day before oxaliplatin treatment (at day 4).

B1: I-394: anti-CD39 antibody, VH SEQ ID NO: 3, VL SEQ ID NO: 4; heavy and light chains SEQ ID NOS: 37 and 38 (antibody)
heavy: EVQLQQSGPELVKPGASVKMSCKASGYTFTDYNMHWVKQSHGRTLEWIGYIVPLNGGSTFNQKFKGRATLTVNTSSRTAYMELRSLTSEDSAAYYCARGGTRFAYWGQGTLVTVSAASTKGPSVFPLAPSSKSTSGGTAALGCLVKDYFPEPVTVSWNSGALTSGVHTFPAVLQSSGLYSLSSVVTVPSSSLGTQTYICNVNHKPSNTKVDKRVEPKSCDKTHTCPPCPAPEAEGAPSVFLFPPKPKDTLMISRTPEVTCVVVDVSHEDPEVKFNWYVDGVEVHNAKTKPREEQYNSTYRVVSVLTVLHQDWLNGKEYKCKVSNKALPSSIEKTISKAKGQPREPQVYTLPPSREEMTKNQVSLTCLVKGFYPSDIAVEWESNGQPENNYKTTPPVLDSDGSFFLYSKLTVDKSRWQQGNVFSCSVMHEALHNHYTQKSLSLSPGK
light: DIVLTQSPASLAVSLGQRATISCRASESVDNFGVSFMYWFQQKPGQPPNLLIYGASNQGSGVPARFRGSGSGTDFSLNIHPMEADDTAMYFCQQTKEVPYTFGGGTKLEIKRTVAAPSVFIFPPSDEQLKSGTASVVCLLNNFYPREAKVQWKVDNALQSGNSQESVTEQDSKDSTYSLSSTLTLSKADYEKHKVYACEVTHQGLSSPVTKSFNRGEC
modifications: Chimeric homo sapiens mus musculus
In the case of B1, the “binding to CD39-L4 in ELISA” value [1] is reported as “not to any of the human isoforms”, the “potency and maximal inhibition of cellular CD39, comparison between antibodies (FIG. 2A)” value (cell-membrane bound CD39; compared with BY40) is reported as “greater potency and maximal inhibition of cellular CD39 compared to BY40; also recorded: greater potency at all concentrations as well as greater maximal inhibition of cellular CD39 compared to BY40” and the “inhibition of cell-membrane bound (cellular) CD39 ATPase activity” value (cell-membrane bound CD39; result in words) is reported as “inhibit cell-membrane bound CD39”. The “binding to Ramos lymphoma cells” value [2] was “bound; also recorded: binds”, the “T cell proliferation and activation (CD25 expression, Cell Trace Violet dilution) in MLR” value (allogenic CD4 T cells) was “higher T cell proliferation and activation” and the “blocking CD39 enzymatic activity in cells expressing human CD39 (CHO-huCD39)” value [3] was “blocks CD39 enzymatic activity; also recorded: highly potent at blocking CD39 enzymatic activity”. For the same molecule, the “maximum inhibition achieved, cellular CD39” value ([4]; Ramos cells, 20 μM ATP) was 81.6%, the “blocking CD39 enzymatic activity in tumor (Ramos) cells” value ([4]; result in words) was “highly potent at blocking CD39 enzymatic activity” and the “effect on tumor growth / tumor volume and mice survival” value [5] was “only marginal effect”.
